# Laboratory results taken from patent US20090305339A1, “Polypeptides With Laccase Activity” (VIALACTIA BIOSCIENCES (NZ) LIMITED, priority 2006, published 2009).
# Key:
# [1] = Laccase activity, 3,4-dimetoxybenzyl alcohol as substrate; type: biochemical
# Procedure: (§1) Laccase activity was determined spectrophotometrically in a thermostated spectrophotometer (Perkin-Elmer) at 40° C. in 100 mM sodium citrate buffer, pH 4.5 (1 ml). The standard assay was performed at 530 nm, using SGZ as the oxidation substrate (ε530=64,000 M^−1cm^−1). The reaction was started by adding SGZ, from a stock solution in methanol, to a final concentration of 20 μM. […] Oxidation of phenol red (75 μM) was determined by the decrease in absorbance at 432 nm. The activity:pH and activity:temperature relationships were determined by incubating the enzyme:substrate mixtures at different pH values and constant temperature (40° C.), and at different temperatures (15-80° C.) and constant pH (4.5), respectively. Catalytic constants were derived by fitting the experimental data onto the Michaelis-Menten model. Control measurements without enzyme were carried out to correct for possible chemical oxidation of the substrates.
# [2] = Laccase activity, violuric acid as substrate; type: biochemical
# [3] = Laccase activity, 1-HBT as substrate; type: biochemical
# [4] = Electrochemical analysis of immobilized laccase in absence of substrate; conditions: for potential at which electro-reduction of oxygen begins: no substrate
# Excerpt: Electrochemical information on electrodes modified with RL5 laccase in absence of substrate was also obtained (FIGS. 3C,D). Again, we found some differences when the electrode material was gold or glassy carbon. Thus, the electro-reduction of oxygen begins in +250 mV when the electrode was gold (FIG. 3C), while it began at +500 mv when it was glassy carbon (FIG. 3D). We found additional information on the glassy carbon electrode compared with the gold electrode. Thus, when removing the oxygen from solution, the T1 copper site oxidization potential of 740 mV vs. NHE was registered. In addition, when a reactivation with oxygen was performed, the three oxidation potential peaks were registred: T1 of 745 mV vs. NHE was the highest; T3 site of 500 mV vs. NHE had two copper ions, so it is the one with a higher area; T2 site had 400 mV vs. NHE. The redox potential of T1 was registered to be in the range of fungal laccases (480-785 mV) (Solomon et al., 1996; Klonowska etal., 2002).
# The electrochemical measurements have been performed with BAS CV-50W voltammetric analyzer. For gold surface experiments, a gold BAS disc electrode has been used. The electrode was cleaned according to the following procedure: the electrode was firstly immersed in “piranha” solution, containing 1 part of hydrogen peroxide 33% v and 3 parts of sulphuric acid 98%, during 5 minutes, after which the electrode was rinsed thoroughly with milliQ water, and polished with Buehler® micropolish gamma alumina #3, 0.05 micron size, during 5 minutes, on a polishing cloth, further immersed into a milliQ water solution and exposed to ultrasounds for 15 minutes. Then, the electrode was cleaned with sulphuric acid oxidization cyclic voltammetry for 30 minutes. The electrode was rinsed three times with milliQ water and polished again for another 5 minutes with the same alumina powder. After the subsequent sonication for 15 minutes, the electrode was finally inmersed into a reductive 0.5 M NaOH solution for 30 minutes and rinsed with milliQ water. The laccase enzyme was immobilized by dropping […] of the enzyme solution at a concentration of 5 mg/ml on the gold surface facing upward and covered to avoid evaporation. After 90 minutes, the second drop was added. After 180 minutes from the first addition, the laccase-modified gold electrode was measured in 100 mM phosphate buffer (pH 6.0) in the presence of oxygen. For measurements under anaerobic conditions, N2 was “bubbled” for 15 minutes into the electrochemical cell. The same procedure was repeated for measuring in presence of 2,6-dimethoxyphenol, used as a test substrate. The immobilization on the carbon electrode was performed on a BAS glassy carbon electrode. The electrode was polished on a graphite-polishing cloth for 5 minutes, until mirror-like surface was achieved. The electrode was rinsed thoroughly with water and, facing upwards, 20 μl of the laccase solution (5 mg/ml) were dropped on the classy carbon surface. The electrode was covered and let to immobilize for 20 minutes. All electrochemical measurements performed for the gold electrode are repeated for this electrode.
# [5] = Oxidation of benzo[a]pyrene (HPLC); type: biochemical; conditions: 50 μM benzo[a]pyrene, HOBt, pH 4.5, overnight, room temperature
# Excerpt: Procedures for cloning, expression and purification of laccase are described in the reference: Beloqui, A., et al. (2006), which is made part of the disclosure of the present application.
# Benzo[a]pyrene was oxidized, however the oxidation products haven't been identified yet.
# [6] = Oxidative reactions of various compounds (substrate preference, overall kinetics, pH range); type: biochemical; conditions: order of oxidized substrates
# Procedure: as §1
# [7] = Electrochemical analysis of immobilized laccase in the presence of DMP; conditions: for electrochemical activity (current): DMP
# Excerpt: RL5 was immobilized on BAS glassy carbon electrodes (FIGS. 3B,D) or on gold electrodes (FIGS. 3A,C). Both materials provide different enzyme orientations:
# (i) the carbon electrode presents hydroxyl groups on the surface, providing a laccase substrate-like structure, which makes the enzyme to immobilize preferably with the active site facing the electrode surface; and
# (ii) gold provides high hydrophobic surface that avoids the contact between the high-hydrophilic density amino acid domain of the enzyme and the electrode, being the hydrophobic domains which preferably orient towards the gold surface.
# Some differences in the electrochemical measurements were observed due to the different orientation of the enzyme on the electrode in the presence of substrate (DMP) (FIGS. 3A,B). Thus, when RL5 laccase was immobilized on gold (FIG. 3A), the activity in the presence of oxygen was of 0.38 microamperes (dashed line), whereas in the absence of oxygen it was of 0.69 microamperes (dotted line). Most likely, the enzyme is using approximately half of the electrons for the reduction of the substrate and the other half from the oxygen in the solution; however, in absence of oxygen, all the electrons are used from the electrode, giving a higher measurement value. When using the carbon electrode (FIG. 3B), the enzyme orients in such a way that the measure, in the presence of oxygen, was 2.8 microamperes (dashed line). This could be explained by the fact that 93% of the electrons are used from the electrode, either because of different enzyme orientations, or because the immobilization on carbon kept higher amount (approximately 7 times) of laccase active. In the carbon electrode the T2 copper oxidization potential site, +500 vs. normal hydrogen electrode (NHE) was determined.
# The electrochemical measurements have been performed with BAS CV-50W voltammetric analyzer. For gold surface experiments, a gold BAS disc electrode has been used. The electrode was cleaned according to the following procedure: the electrode was firstly immersed in “piranha” solution, containing 1 part of hydrogen peroxide 33% v and 3 parts of sulphuric acid 98%, during 5 minutes, after which the electrode was rinsed thoroughly with milliQ water, and polished with Buehler® micropolish gamma alumina #3, 0.05 micron size, during 5 minutes, on a polishing cloth, further immersed into a milliQ water solution and exposed to ultrasounds for 15 minutes. Then, the electrode was cleaned with sulphuric acid oxidization cyclic voltammetry for 30 minutes. […] After 180 minutes from the first addition, the laccase-modified gold electrode was measured in 100 mM phosphate buffer (pH 6.0) in the presence of oxygen. […]
# [8] = Decolorization of Poly R-478; type: biochemical; conditions: Poly R-478 0.025%, pH 4.5, room temperature, 0.2 units enzyme, 3500 min
# Procedure: Decolorization of Poly-R 478 (0.025 w/v) in the presence or absence of HOBt (1-Hydroxybenzotriazole) (0.9 mM) was determined spectrophotometrically (520 nm) at room temperature in 100 mM sodium phosphate buffer pH 4.5.
# [9] = glassy carbon, after reactivation with oxygen, vs. NHE
molecule,measurement,setting,value
"RL5: polypeptide with laccase activity from bovine rumen metagenome library, amino acid sequence of FIG. 11 (protein, Description of sequence Amino acid sequence of RL5 laccase 3217 to 2414 frame 1 - 262 amino acids (see Figure 11)) MIELEKLDFAKSVEGVEAFSTTRGQVDGRNAYSGVNLCDYVGDDALRVLDARLTLAMQLGVDLDDLVMPRQTHSCRVAVIDERFRALDIDEQEAALEGVDALVTRLQGIVIGVNTADCVPIVLVDSQAGIVAVSHAGWRGTVGRIAKAVVEEMCRQGATVDRIQAAMGPSICQDCFEVGDEVVEAFKKAHFNLNDIVVRNPATGKAHIDLRAANRAVLVAAGVPAANIVESQHCSRCEHTSFFSARRLGINSGRTFTGIYRK",substrate of the laccase,[1],not substrates
same,substrate of the laccase,[2],not substrates
same,substrate of the laccase,[3],not substrates
same,potential at which electro-reduction of oxygen begins,[4]; glassy carbon electrode,+500 mv
same,T1 oxidation potential,[4]; [9],745 mV
same,T2 site oxidation potential,[4]; [9],400 mV
same,T3 site oxidation potential,[4]; [9],500 mV
same,T1 copper site oxidization potential,"[4]; glassy carbon, oxygen removed from solution, vs. NHE",740 mV
same,potential at which electro-reduction of oxygen begins,[4]; gold electrode,+250 mV
same,oxidation of benzo[a]pyrene,[5],oxidized
same,substrate preference,[6],SGZ>DMP>veratryl alcohol>guaiacol>tetramethylbenzidine>4-metoxybenzyl alcohol>2ABTS>phenol red
same,electrochemical activity (current),"[7]; carbon electrode, presence of oxygen",2.8 microamperes
same,T2 copper oxidization potential site,"[7]; carbon electrode, vs. normal hydrogen electrode (NHE)",+500
same,electrochemical activity (current),"[7]; gold electrode, absence of oxygen",0.69 microamperes
same,electrochemical activity (current),"[7]; gold electrode, presence of oxygen",0.38 microamperes
same,Poly R-478 solution oxidized,[8],more than 70%
